The record followed here is the Immune Epitope Database (IEDB).

One assay has as its target HLA-B*07:02. Description: IEDB peptide-MHC binding, purified MHC/direct/fluorescence; filed as Kd, often an IC50 or EC50 that approximates it; ≥ and ≤ were set here for values at or beyond the usual limits of such assays.
For assay [1], the target named is HLA-B*15:01. The assay is described as above.
The target in assay [2] is HLA-B*51:01. Described as above.
The next assay deals with HLA-A*30:01. Kind of assay: IEDB peptide-MHC binding, purified MHC/competitive/radioactivity; filed as Kd, often an IC50 or EC50 that approximates it; ≥ and ≤ were set here for values at or beyond the usual limits of such assays. Conditions: source organism: Vaccinia virus WR.
The target of a further assay is HLA-A*32:01. The assay is described as above.
For assay [3], the target named is HLA-B*08:01. Described as above.
For assay [4], the target named is HLA-B*15:01. The description is as above.
The target of another assay is HLA-B*15:03. The description is as above. Particulars: source organism: Vaccinia virus WR.
The target of another assay is HLA-A*01:01. Description: IEDB peptide-MHC binding, purified MHC/direct/fluorescence; filed as Kd, often an IC50 or EC50 that approximates it; ≥ and ≤ were set here for values at or beyond the usual limits of such assays. Particulars: source organism: Mycobacterium tuberculosis C.
For assay [5], the target named is HLA-A*03:01. Described as above. Particulars: source organism: Mycobacterium tuberculosis C.
Assay [6] deals with HLA-A*11:01. The assay is described as above. Particulars: source organism: Mycobacterium tuberculosis C.
The target in a further assay is HLA-A*31:01. Described as above. Particulars: source organism: Mycobacterium tuberculosis C.
Assay [7] deals with HLA-B*08:01. The description is as above. Conditions: source organism: Mycobacterium tuberculosis C.
For another assay, the target named is HLA-B*18:01. Described as above. Particulars: source organism: Mycobacterium tuberculosis C.
The target of a further assay is HLA-B*40:01. Described as above. Particulars: source organism: Mycobacterium tuberculosis C.
Another assay deals with HLA-B*44:02. Described as above. Conditions: source organism: Mycobacterium tuberculosis C.
A further assay addresses HLA-B*46:01. Described as above. Particulars: source organism: Mycobacterium tuberculosis C.
In a further assay the target is HLA-B*48:01. Described as above.
The target in the next assay is HLA-B*57:01. Described as above.
Assay [8] addresses HLA-B*58:01. The assay is described as above.
Assay [9] has as its target HLA-B*51:01. Kind of assay: IEDB peptide-MHC binding, purified MHC/competitive/fluorescence; filed as Kd, often an IC50 or EC50 that approximates it; ≥ and ≤ were set here for values at or beyond the usual limits of such assays. Particulars: source organism: Mycobacterium tuberculosis C.
The target in another assay is HLA-B*15:17. Description: IEDB peptide-MHC binding, purified MHC/direct/fluorescence; filed as Kd, often an IC50 or EC50 that approximates it; ≥ and ≤ were set here for values at or beyond the usual limits of such assays.
Another assay addresses HLA-B*35:01. Kind of assay: IEDB peptide-MHC binding, purified MHC/competitive/radioactivity; filed as Kd, often an IC50 or EC50 that approximates it; ≥ and ≤ were set here for values at or beyond the usual limits of such assays. Particulars: source organism: Dengue virus 3 Martinique/1243/1999.
The next assay has as its target HLA-B*53:01. Described as above. Conditions: source organism: Dengue virus 3 Martinique/1243/1999.
For assay [10], the target named is HLA-B*58:01. Described as above.
Assay [11] concerns the target HLA-A*02:01. Description: IEDB peptide-MHC binding, purified MHC/competitive/fluorescence; filed as Kd, often an IC50 or EC50 that approximates it; ≥ and ≤ were set here for values at or beyond the usual limits of such assays.
The target in a further assay is HLA-A*02:19. The description is as above.
Assay [12] has as its target HLA-A*02:01. Description: IEDB peptide-MHC binding, purified MHC/competitive/fluorescence; ≥ and ≤ were set here for values at or beyond the usual limits of such assays. Conditions: source organism: Zaire ebolavirus.
Assay [13] addresses HLA-A*03:01. The assay is described as above. Particulars: source organism: Zaire ebolavirus.
Assay [14] deals with HLA-A*11:01. The assay is described as above. Particulars: source organism: Zaire ebolavirus.
For a further assay, the target named is HLA-A*24:02. Described as above. Particulars: source organism: Zaire ebolavirus.
Setting [15] is: source organism: Giardia lamblia ATCC 50803.
Where [16] appears, read: source organism: Vaccinia virus WR.
The mark [17] stands for this setting: source organism: Mycobacterium tuberculosis C.
[18] abbreviates: source organism: West Nile virus.
Where [19] appears, read: source organism: Dengue virus 3 Martinique/1243/1999.
[20] abbreviates: source organism: Bacillus anthracis str. A0488.
The mark [21] stands for this setting: source organism: Dengue virus 2 Jamaica/1409/1983.
Setting [22] is: source organism: Mammarenavirus lassaense.
The mark [23] stands for this setting: source organism: Burkholderia vietnamiensis G4.
Setting [24] is: source organism: Bacillus anthracis.

As usually defined, the Kd is the constant that tells how readily two partners part at equilibrium. As to VLRQAALSL, the Kd in the assay with HLA-B*07:02 (setting [15]) is 0.013 µM; with HLA-B*15:01 [1] (setting [15]) it was 0.044 µM; in the assay with HLA-B*51:01 [2] (setting [15]), no less than 20 µM.
RFRNHMCLV: the equilibrium dissociation constant (Kd) in the assay with HLA-A*30:01 was 0.0313 µM; in the assay with HLA-A*32:01 (setting [16]), no less than 77.8 µM; with HLA-B*08:01 [3] (setting [16]), 0.864 µM; in the assay with HLA-B*15:01 [4] (setting [16]), 4.09 µM; with HLA-B*15:03, no less than 42.8 µM.
Take GPSLRTTTV: in the assay with HLA-B*51:01 [2] (source organism: dengue virus type 1), the Kd is no less than 20 µM.
As to TPKIRFWHV, the Kd with HLA-A*01:01 was no less than 20 µM; with HLA-A*03:01 [5] it was no less than 20 µM; with HLA-A*11:01 [6], no less than 20 µM; with HLA-A*31:01, no less than 20 µM; in the assay with HLA-B*07:02 (setting [17]), no less than 20 µM; with HLA-B*08:01 [7] it was 0.0915 µM. The equilibrium dissociation constant (Kd) with HLA-B*15:01 [1] (setting [17]), with HLA-B*18:01, with HLA-B*40:01, with HLA-B*44:02, with HLA-B*46:01 and in the assay with HLA-B*48:01 (setting [17]) was no less than 20 µM each time. For the same sequence, the Kd in the assay with HLA-B*57:01 (setting [17]), in the assay with HLA-B*58:01 [8] (setting [17]) and with HLA-B*51:01 [9] was no less than 20 µM throughout.
Regarding ISGKSTDMW, the Kd was 0.123 µM with HLA-B*15:17 (setting [18]) and 0.891 µM with HLA-B*57:01 (setting [18]).
With MAMTDTTPF, the dissociation constant (Kd) is 0.242 µM in the assay with HLA-A*32:01 (setting [19]); 0.229 µM with HLA-B*08:01 [3] (setting [19]); 0.0119 µM in the assay with HLA-B*15:01 [4] (setting [19]); 0.00181 µM in the assay with HLA-B*35:01; 0.00545 µM with HLA-B*53:01; 0.0107 µM with HLA-B*58:01 [10] (setting [19]).
As for LASVALNMF, the dissociation constant (Kd) with HLA-B*15:03 was determined as 0.411 µM.
Turning to KKYNVRYVF, in the assay with HLA-B*15:03, the Kd was found to be 0.00101 µM.
Same read-out and setting: as for ALVFGRRLF, the figure is 1.13 µM.
Consider DMNLEQWSV, for which the Kd with HLA-A*02:01 [11] (setting [20]) was no less than 20 µM; with HLA-A*02:19 (setting [20]), 0.0117 µM.
With KKVCFVNKL, the Kd with HLA-B*15:03 is 0.00451 µM.
RSWPLNEAI: the Kd was 0.087 µM in the assay with HLA-A*32:01 (setting [21]) and 0.0071 µM with HLA-B*58:01 [10] (setting [21]).
Consider LMSEETIDF, for which, in the assay with HLA-B*15:03, the dissociation constant (Kd) was 0.0116 µM.
A word on the IC50: it is the concentration at which inhibition is half-maximal. High values mean weaker potency in that assay, low ones greater potency in that assay. Regarding TNAMVTLRK, the 50% inhibitory concentration (IC50) is no less than 1090 µM in the assay with HLA-A*02:01 [12], 6.42 µM in the assay with HLA-A*03:01 [13], 0.311 µM in the assay with HLA-A*11:01 [14] and no less than 188 µM in the assay with HLA-A*24:02.
For the sequence AVKAGACML, the Kd with HLA-B*07:02 (setting [22]) is 2.47 µM; with HLA-B*51:01 [2] (setting [22]), no less than 20 µM.
As for KILMNFHQK, the IC50 was no less than 95.4 µM in the assay with HLA-A*02:01 [12], 3.35 µM with HLA-A*03:01 [13], 0.441 µM with HLA-A*11:01 [14] and 50.3 µM with HLA-A*24:02.
For the sequence WFMTWQPNI, the equilibrium dissociation constant (Kd) with HLA-A*02:01 [11] (setting [23]) came to 0.54 µM; with HLA-A*02:19 (setting [23]) it was 0.0528 µM.
Turning to FLRLSANLF, the dissociation constant Kd with HLA-B*15:03 was 0.000119 µM.
For the sequence MSSSQDLSF, the results for the Kd with HLA-B*15:01 [4] (setting [16]) and with HLA-B*15:03 were 0.0159 µM and 0.108 µM, respectively.
For LQAKSGSSL, in that order: 0.0046 µM and 0.000326 µM.
EQGKQHAWL had a Kd with HLA-B*48:01 (source organism: Burkholderia mallei ATCC 23344) of no less than 20 µM.
Regarding LEVRFGNDV, the equilibrium dissociation constant (Kd) in the assay with HLA-B*15:03 was found to be 1.34 µM.
Take GMSKEPGVVS: the Kd with HLA-B*58:01 [10] (setting [19]) amounted to 1.15 µM.
On to KAIKILIGF, for which the Kd with HLA-B*58:01 [10] (source organism: Dengue virus 4 Dominica/814669/1981) worked out at 0.00766 µM.
For the sequence KIFFRPTTI, the Kd in the assay with HLA-A*30:01 stood at 0.0168 µM; with HLA-A*32:01 (setting [16]) it was 0.00109 µM; with HLA-B*08:01 [3] (setting [16]), 1.74 µM; with HLA-B*15:01 [4] (setting [16]) it was 0.093 µM; in the assay with HLA-B*15:03, 2.66 µM.
Take VPGFHGWAT: the dissociation constant (Kd) with HLA-B*07:02 (source organism: Amur virus) is 0.115 µM; with HLA-B*51:01 [2] (source organism: Amur virus), no less than 20 µM.
ISGPIKHPL: the values for the dissociation constant Kd in the assay with HLA-B*15:17 (setting [24]), in the assay with HLA-B*57:01 (setting [24]) and with HLA-B*58:01 [8] (setting [24]) were 0.0883 µM, 0.28 µM and no less than 20 µM, respectively.
As for LRFLEKTSF, in the assay with HLA-B*15:03, the Kd is 0.00223 µM.
Turning to LKTTFVHPF, the equilibrium dissociation constant (Kd) with HLA-B*15:03 is 0.00132 µM.
